The target of the test is cLUC-SlPIF4 (tomato (Solanum lycopersicum)). The test is described as follows: split reporter (BiFC, NanoBiT); split luciferase complementation: cLUC-SlPIF4 and nLUC-SlDELLA co-expressed in N. benthamiana leaves for 2 days; 1 mM D-luciferin; camera and microplate luminometer.
Sequence of cLUC-SlPIF4 (tomato (Solanum lycopersicum)) (main, as listed by the source): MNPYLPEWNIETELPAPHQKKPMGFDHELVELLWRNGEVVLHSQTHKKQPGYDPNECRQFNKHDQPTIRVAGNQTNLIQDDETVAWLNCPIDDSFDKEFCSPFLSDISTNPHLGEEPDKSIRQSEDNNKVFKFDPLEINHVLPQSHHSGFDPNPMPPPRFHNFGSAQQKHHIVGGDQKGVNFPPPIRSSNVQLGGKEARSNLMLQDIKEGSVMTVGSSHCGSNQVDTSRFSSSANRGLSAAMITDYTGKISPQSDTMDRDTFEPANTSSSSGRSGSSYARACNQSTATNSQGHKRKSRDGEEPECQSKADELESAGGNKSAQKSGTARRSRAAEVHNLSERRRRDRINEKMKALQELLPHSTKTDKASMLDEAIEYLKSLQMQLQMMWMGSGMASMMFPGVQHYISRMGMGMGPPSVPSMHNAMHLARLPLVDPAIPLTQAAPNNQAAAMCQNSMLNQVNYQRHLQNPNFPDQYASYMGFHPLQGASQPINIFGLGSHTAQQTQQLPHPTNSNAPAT

With nLUC-SlDELLA (natural protein), the luciferase activity, fold over the control co-expressing cLUC and nLUC (times the control) was 170.

Values taken from paper PMC11384114.
